Where no end group is shown, it is not given here.
Molecular target: T1, human L3MBTL1 R467C mutant containing 3 MBT repeats (residues 200-522, 3MBT) (human)
T1 construct: also called L3MBTL1 Arg467Cys mutant; source: expressed and purified as previously described [20]
Experiment: ITC; L3MBTL1 R467C mutant titrated with H4K20me2; data not shown
Conditions: both partners purified

stoichiometry N: 1
Binder: RHRK(dimethyl)VLRDN [H4K20me2 peptide (used for co-crystallisation and ITC with L3MBTL1 R467C)]

From article PMC2747274, “Structural Studies of a Four-MBT Repeat Protein MBTD1” (PLoS ONE, 2009)
